± gives the standard deviation of the averaged measurements.

The source of these data is the supplement of paper PMC10126150.

This data set concerns ATP. Nature of the data set: switch fluorescence ratio, 500 uM ATP over buffer (Cy3 cluster intensity, sum of 5 cycles each) (fold (ratio)); higher = stronger signal-on switching upon ATP binding; sequences stand for … in TCGTCGGCAGCGTCAGATGTGTATAAGAGACAGTTTTTTTTTTTTTTTTTTTTTTTTT…TC. The settings on record: aptamer strand: ATP DNA aptamer (quencher-CACCTGGGGGAGTATTGCGGAGGAAGG + anchor), 100 nM annealed; ATP concentration: 500 uM. The gist of the method: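 Exposure to 500 uM ATP lasted 15 min at 22 °C before imaging, and a selection-buffer image was taken beforehand, for Cy3-labelled switching-strand clusters on a modified Illumina MiSeq flow-cell annealed to 100 nM quencher-labelled ATP aptamer. Five buffer/ATP cycles were run with NaOH stripping and re-annealing between them. The fluorescence ratio per cluster is summed target-cycle over summed buffer-cycle Cy3 intensity, averaged per switch-domain sequence. Clusters outside 100-1000 RFU were excluded.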
With ACGGGACGGG, the switch fluorescence ratio was found to be 1.02 ± 0.035. The value for GAGGGCACGA was 1.09 ± 0.086.

Consider CTGAGATTTT, for which the switch fluorescence ratio came to 0.931 ± 0.018. For TCGTGGTTTA, the switch fluorescence ratio worked out at 0.994 ± 0.021. With GAAGGACAGC, the switch fluorescence ratio came to 1.05 ± 0.034. For the sequence GTTTTTGATA, the switch fluorescence ratio was 0.998 ± 0.02.

In the case of TCAAAGGGGG, the switch fluorescence ratio was 0.951 ± 0.023. The value for ATATCCGACA was 1.054 ± 0.0056; that for GGTATTCCGT was 1.03 ± 0.045. The figure for TCACTCATAT is 1.02 ± 0.013. Turning to GTGTTTTTCC, the switch fluorescence ratio came out at 1.41 ± 0.49.

TAAGAAAGGA: the switch fluorescence ratio was determined as 0.997 ± 0.048. The value for ATCTGGTGCA was 1.055 ± 0.0059. For CGAATCCATT, the switch fluorescence ratio was 0.9869 ± 0.0033.

Regarding CATTTGATCG, the switch fluorescence ratio came out at 1.03 ± 0.013. On to AGTCGTTGGA, for which the switch fluorescence ratio was 0.96555 ± 0.00011.

For the sequence CTTTGGGCAA, the switch fluorescence ratio was determined as 1.46 ± 0.089. As for CGTGTGAGGG, the switch fluorescence ratio is 1.01 ± 0.015. The value for CATTTTCTC was 1.038 ± 0.0086; that for GGATACTGCA was 1.043 ± 0.0054; that for TGGCGGTATA was 0.993 ± 0.012. As for GGGGGGTAA, the switch fluorescence ratio was determined as 1.01 ± 0.019. Turning to AGGAGGATGT, the switch fluorescence ratio came out at 0.98 ± 0.01. For GAGTTTGTTT, the switch fluorescence ratio was 0.99 ± 0.044. Take AGCTATGTTA: the switch fluorescence ratio was found to be 1.03 ± 0.0045. The value for CTTTAAGGGG was 1.01 ± 0.03; that for CACGACTCGT was 1 ± 0.011. Turning to ACACTTAAGT, the switch fluorescence ratio was found to be 1.02 ± 0.029. Consider TCCTTGAGTG, for which the switch fluorescence ratio was 1.03 ± 0.031.

As to CGGAAGATAG, the switch fluorescence ratio stood at 1.027 ± 0.0066. The value for GGCTCTAGGG was 0.9921 ± 0.0036. Turning to GGGGTAAGGT, the switch fluorescence ratio is 0.99 ± 0.036. On to AGGCTTAAGA, for which the switch fluorescence ratio came out at 0.976 ± 0.031.

AAGAGGGGCT: the switch fluorescence ratio amounted to 1.015 ± 0.0018. Turning to CCATATAGGC, the switch fluorescence ratio is 1.03 ± 0.065. The figure for CGTGCCGGGG is 0.968 ± 0.053. For CGTATGGGAA, the switch fluorescence ratio was 1.026 ± 0.0082. In the case of GATTTAGGCA, the switch fluorescence ratio stood at 0.986 ± 0.015. The figure for GATGGGGCTC is 0.979 ± 0.024; for ATCAAAGGTG it is 1.404 ± 0.0027; for GGTGACAAAT it is 0.9777 ± 0.003.

For the sequence GCGGTCATGG, the switch fluorescence ratio was found to be 0.992 ± 0.046. Turning to ATACCTTATG, the switch fluorescence ratio is 1 ± 0.029.

Turning to ACTTCAGCGG, the switch fluorescence ratio is 1.07 ± 0.015. The value for GGGGCAATGT was 1.22 ± 0.05. On to AAGGCAAGGG, for which the switch fluorescence ratio stood at 1.01 ± 0.028. Regarding TTGGGGTTAT, the switch fluorescence ratio is 0.975 ± 0.032. Consider TTTTTCGATT, for which the switch fluorescence ratio stood at 0.982 ± 0.026. As to GGGTAGGGGC, the switch fluorescence ratio is 1.02 ± 0.026. The figure for AGTTAGGGGT is 0.987 ± 0.02. As for TCCAGGGGCG, the switch fluorescence ratio was 1.73 ± 0.99.

Turning to ATTGTGGAGA, the switch fluorescence ratio was 1.03 ± 0.032. The value for TGGGGGGAGG was 1 ± 0.036; that for GGTTTTGATG was 0.98 ± 0.039. Turning to CTTGCCGATT, the switch fluorescence ratio was found to be 0.968 ± 0.029.

Turning to AAGGGCTCAA, the switch fluorescence ratio is 1.02 ± 0.011. TAAGGGATAG: the switch fluorescence ratio amounted to 0.985 ± 0.043.

As for GTGGCAACGC, the switch fluorescence ratio was determined as 0.98 ± 0.021. The value for AAAGTGTTTG was 1.02 ± 0.016; that for GGTATGGTCT was 1.02 ± 0.022; that for GCGAATTAGA was 1 ± 0.034. In the case of GGCAGTCGTA, the switch fluorescence ratio came to 0.955 ± 0.081. The value for GGGGGTGGG was 1.03 ± 0.069; that for TGTGCCTGTT was 1.008 ± 0.0018. As to TATGTACATG, the switch fluorescence ratio amounted to 1 ± 0.026. Take GTCGTAAAAA: the switch fluorescence ratio was 1.61 ± 0.0016. On to AAAGAGGCGG, for which the switch fluorescence ratio stood at 1.006 ± 0.0013. As for TTGTTGGGCC, the switch fluorescence ratio was 1.01 ± 0.036. As to TGTAGGGAGG, the switch fluorescence ratio stood at 0.966 ± 0.053. Take GTACGAGGGA: the switch fluorescence ratio is 0.997 ± 0.026. On to GAAACTTGGT, for which the switch fluorescence ratio came out at 1.004 ± 0.0065. Regarding CTTCACAGGG, the switch fluorescence ratio was 1.06 ± 0.04. GCGGGAGGAT: the switch fluorescence ratio came out at 1.031 ± 0.01.

Consider TTCGTTATAC, for which the switch fluorescence ratio is 2.29 ± 1.1. As for GCCCTTGTAC, the switch fluorescence ratio stood at 1.2 ± 0.094. Regarding ATGCTTAGTC, the switch fluorescence ratio amounted to 0.964 ± 0.018. The value for AGGCACGTCG was 1.021 ± 0.009; that for TAAAGGGGGG was 1.01 ± 0.047. Take ATGGGGAAAG: the switch fluorescence ratio was found to be 0.9876 ± 0.0034. For GCCGGAGCGG, the switch fluorescence ratio was found to be 1.38 ± 0.062. In the case of TAAGGCCCGG, the switch fluorescence ratio came to 1 ± 0.03. Turning to GCTATCTTAT, the switch fluorescence ratio was found to be 0.9798 ± 0.008. Take CGGCTTTTTT: the switch fluorescence ratio amounted to 0.959 ± 0.012.

For GTGGGGATTT, the switch fluorescence ratio was determined as 1.01 ± 0.013. For the sequence TTTTGGCT, the switch fluorescence ratio was found to be 1.02 ± 0.025. In the case of ACAATTGATG, the switch fluorescence ratio was 1 ± 0.04. On to CTGAATGTAG, for which the switch fluorescence ratio was found to be 1 ± 0.011. As for AGGGTTGCGA, the switch fluorescence ratio was 1.02 ± 0.025. Turning to CATAGGGTTT, the switch fluorescence ratio is 1.04 ± 0.047. Take ATATTTTTT: the switch fluorescence ratio is 0.9892 ± 0.0038.

For AGGGGCGGGT, the switch fluorescence ratio came out at 1.23 ± 0.46. The figure for GGGTCAGACG is 1.06 ± 0.086; for AGTGGGAGTA it is 1.05 ± 0.052.

Take TATTTAAAAC: the switch fluorescence ratio was 1.03 ± 0.021. Regarding GTGAGGGAGT, the switch fluorescence ratio was 1.008 ± 0.006. For AAACGCTGCG, the switch fluorescence ratio is 1.02 ± 0.035. On to CCGCTCGATG, for which the switch fluorescence ratio was 1.37 ± 0.023.

For the sequence CTGCTAATAT, the switch fluorescence ratio came to 1.73 ± 0.14. The value for TTCCAGGCAA was 4.47 ± 0.45; that for TTGACGTCGG was 0.985 ± 0.018. In the case of TTTTTCTCCC, the switch fluorescence ratio came out at 1.03 ± 0.049.

As for CTGGGGTGGC, the switch fluorescence ratio was 1.03 ± 0.046.

As for GGAGTTTTTT, the switch fluorescence ratio turned out to be 0.968 ± 0.029. Regarding AGGATGGTAT, the switch fluorescence ratio stood at 1.003 ± 0.01. The value for CGGTGTACGC was 1.061 ± 0.0034; that for ATTCAGGTC was 1 ± 0.038; that for TATGATGTTA was 0.9931 ± 0.0093. As for ATAAGTGTCT, the switch fluorescence ratio was determined as 1.02 ± 0.011. Regarding TATGTCGGCG, the switch fluorescence ratio was 0.991 ± 0.055. As for TAAGGGACAC, the switch fluorescence ratio turned out to be 1.05 ± 0.017. For the sequence CTGGGTAATA, the switch fluorescence ratio turned out to be 1.08 ± 0.047.

In the case of GCTGATGTTT, the switch fluorescence ratio worked out at 1.023 ± 0.0095. Turning to GGCGATGTAT, the switch fluorescence ratio came out at 0.967 ± 0.0097.

For the sequence TGGGGGTGGT, the switch fluorescence ratio came to 1 ± 0.028. GCGAGCGATG: the switch fluorescence ratio was found to be 0.9988 ± 0.0062. On to ATGCAGATTA, for which the switch fluorescence ratio turned out to be 1.023 ± 0.0051. The value for TCGTAGACGT was 1.01 ± 0.011; that for AAGGTAAGAG was 0.999 ± 0.037.

For the sequence TCGGATGGTT, the switch fluorescence ratio was determined as 0.978 ± 0.024. GCTTGGCTCG: the switch fluorescence ratio was 1.01 ± 0.027.
